Assay results taken from US20120121633A1 (published 2012).

Target: T1, ovalbumin (UniProt P01012 2-386)
T1 construct: also called control ovalbumin
T1 sequence: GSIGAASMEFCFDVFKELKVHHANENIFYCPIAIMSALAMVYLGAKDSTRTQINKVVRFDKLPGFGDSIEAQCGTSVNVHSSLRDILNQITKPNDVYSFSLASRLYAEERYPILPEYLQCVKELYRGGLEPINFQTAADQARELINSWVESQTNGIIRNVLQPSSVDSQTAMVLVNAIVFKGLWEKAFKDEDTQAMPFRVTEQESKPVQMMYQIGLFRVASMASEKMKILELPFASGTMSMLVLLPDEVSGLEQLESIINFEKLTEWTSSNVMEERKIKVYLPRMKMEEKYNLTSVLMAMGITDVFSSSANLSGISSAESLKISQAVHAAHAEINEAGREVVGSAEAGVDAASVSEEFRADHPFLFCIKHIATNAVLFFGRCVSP
Experiment: competition ELISA: no inhibition of MAb 2G9 binding to immobilized BSA-E-416-433

B1: IgM clone 2G9 (antibody, V domains shown)
VH: QVQLKQSGPGLVQPSQSLSITCTVSGFSLTSYGVHWVRQSPGKGLEWLGVIWSGGSTDYNAAFISRLSISKDNSKSQVFFKMNSLQANDTAIYYCARNKDYGSSYDYYAMDYWGQGTSVTVSS
VL: DIQMTQTTSSLSASLGDRVTISCRASQDISNYLNWYQQKPDGTVKLLIYYTSRLHSGVPSRFSGSGSGTDYSLTISNLEQEDIATYFCQQGNTLPTFGGGTKLEIKR
notes: also called MAb 2G9; MAb IgM 2G9
binding result: no binding
